Target: T1, RecD2-His (Bacillus subtilis RecD2 helicase with C-terminal His tag) (B. subtilis, UniProt O34481 1-798)
T1 sequence (looked up): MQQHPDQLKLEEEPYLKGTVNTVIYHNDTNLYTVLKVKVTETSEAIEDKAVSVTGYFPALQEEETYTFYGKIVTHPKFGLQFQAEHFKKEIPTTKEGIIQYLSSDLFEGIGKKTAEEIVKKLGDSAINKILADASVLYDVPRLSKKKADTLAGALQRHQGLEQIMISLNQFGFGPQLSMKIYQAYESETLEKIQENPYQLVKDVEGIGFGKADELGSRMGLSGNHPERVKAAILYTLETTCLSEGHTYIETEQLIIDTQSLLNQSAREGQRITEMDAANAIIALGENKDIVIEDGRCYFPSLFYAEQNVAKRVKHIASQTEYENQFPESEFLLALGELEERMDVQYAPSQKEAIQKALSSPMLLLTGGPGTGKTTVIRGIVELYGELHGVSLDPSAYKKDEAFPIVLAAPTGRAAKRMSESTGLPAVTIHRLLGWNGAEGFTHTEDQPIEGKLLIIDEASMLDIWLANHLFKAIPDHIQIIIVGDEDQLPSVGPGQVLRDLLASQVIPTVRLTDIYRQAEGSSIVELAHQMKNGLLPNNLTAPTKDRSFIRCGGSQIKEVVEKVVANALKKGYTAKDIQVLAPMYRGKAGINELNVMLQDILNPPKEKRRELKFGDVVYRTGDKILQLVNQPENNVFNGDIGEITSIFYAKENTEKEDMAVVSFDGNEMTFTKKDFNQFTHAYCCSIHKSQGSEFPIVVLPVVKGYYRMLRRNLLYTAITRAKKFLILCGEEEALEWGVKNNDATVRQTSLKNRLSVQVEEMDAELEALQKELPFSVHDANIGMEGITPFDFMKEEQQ
Assay: far-Western, overlay or dot blot

B1: RecA (Bacillus subtilis recombinase) (natural protein, B. subtilis, UniProt P16971 1-348, looked up)
chain: MSDRQAALDMALKQIEKQFGKGSIMKLGEKTDTRISTVPSGSLALDTALGIGGYPRGRIIEVYGPESSGKTTVALHAIAEVQQQGGQAAFIDAEHALDPVYAQKLGVNIEELLLSQPDTGEQALEIAEALVRSGAVDIVVVDSVAALVPKAEIEGDMGDSHVGLQARLMSQALRKLSGAINKSKTIAIFINQIREKVGVMFGNPETTPGGRALKFYSSVRLEVRRAEQLKQGNDVMGNKTKIKVVKNKVAPPFRTAEVDIMYGEGISKEGEIIDLGTELDIVQKSGSWYSYEEERLGQGRENAKQFLKENKDIMLMIQEQIREHYGLDNNGVVQQQAEETQEELEFEE
B1: binds.

B2: SsbA (Bacillus subtilis single-stranded DNA binding protein) (natural protein, B. subtilis, UniProt P37455 1-172, looked up)
chain: MLNRVVLVGRLTKDPELRYTPNGAAVATFTLAVNRTFTNQSGEREADFINCVTWRRQAENVANFLKKGSLAGVDGRLQTRNYENQQGQRVFVTEVQAESVQFLEPKNGGGSGSGGYNEGNSGGGQYFGGGQNDNPFGGNQNNQRRNQGNSFNDDPFANDGKPIDISDDDLPF
B2: binds.

Source: publication PMC8989531 (Nucleic Acids Research, 2022)
